In paper doi:10.1101/2020.11.19.389874:

Assays:
[1] = target: Urn8RB (Urinate Receptor isoform RB) expressed in CHO/G16 cells (Tribolium castaneum)
[2] = target: Urn8RA (Urinate Receptor isoform RA) expressed in CHO/G16 cells (Tribolium castaneum)

bioluminescence response of CHO/G16 cells expressing Urn8RB, dose-response, EC50 [1] [nM] | bioluminescence response of CHO/G16 cells expressing Urn8RA, dose-response, EC50 [2] [nM] | Substance
340 | 380 | Tribolium castaneum diuretic hormone 47 (DH47), unlabeled (peptide)
450 | 160 | Tribolium castaneum diuretic hormone 37 (DH37), unlabeled (peptide)
